# Patent US20110239311
# B1: recombinant PKCzeta (enzyme, UniProt Q05513 1-592, looked up, species assumed)
# Protein kinase C zeta type: MPSRTGPKMEGSGGRVRLKAHYGGDIFITSVDAATTFEELCEEVRDMCRLHQQHPLTLKWVDSEGDPCTVSSQMELEEAFRLARQCRDEGLIIHVFPSTPEQPGLPCPGEDKSIYRRGARRWRKLYRANGHLFQAKRFNRRAYCGQCSERIWGLARQGYRCINCKLLVHKRCHGLVPLTCRKHMDSVMPSQEPPVDDKNEDADLPSEETDGIAYISSSRKHDSIKDDSEDLKPVIDGMDGIKISQGLGLQDFDLIRVIGRGSYAKVLLVRLKKNDQIYAMKVVKKELVHDDEDIDWVQTEKHVFEQASSNPFLVGLHSCFQTTSRLFLVIEYVNGGDLMFHMQRQRKLPEEHARFYAAEICIALNFLHERGIIYRDLKLDNVLLDADGHIKLTDYGMCKEGLGPGDTTSTFCGTPNYIAPEILRGEEYGFSVDWWALGVLMFEMMAGRSPFDIITDNPDMNTEDYLFQVILEKPIRIPRFLSVKASHVLKGFLNKDPKERLGCRPQTGFSDIKSHAFFRSIDWDLLEKKQALPPFQPQITDDYGLDNFDTQFTSEPVQLTPDDEDAIKRIDQSEFEGFEYINPLLLSTEESV
# System: GST-NR2F6 fusion protein, wild-type, full-length (purified recombinant)
# Sequence (chain, as listed by the source): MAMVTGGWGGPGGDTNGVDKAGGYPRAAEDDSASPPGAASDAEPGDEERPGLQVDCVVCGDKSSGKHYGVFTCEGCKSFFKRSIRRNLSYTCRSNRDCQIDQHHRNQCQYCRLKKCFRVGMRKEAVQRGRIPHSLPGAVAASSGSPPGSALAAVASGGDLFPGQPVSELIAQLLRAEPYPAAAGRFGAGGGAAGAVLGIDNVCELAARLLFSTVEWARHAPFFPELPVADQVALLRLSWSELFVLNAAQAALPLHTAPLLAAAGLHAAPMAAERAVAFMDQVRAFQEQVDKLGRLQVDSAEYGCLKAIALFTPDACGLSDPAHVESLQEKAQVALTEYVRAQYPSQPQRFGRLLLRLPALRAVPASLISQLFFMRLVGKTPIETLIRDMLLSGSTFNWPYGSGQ
protein,measurement,value
B1,in vitro protein kinase assay (32P incorporation into GST-NR2F6),(but not PKCzeta or PKA) were able to phosphorylate recombinant NR2F6 in vitro
